Reference: publication PMC8906792 (eNeuro, 2022)

B1: recombinant human αA-crystallin T148D (phosphomimetic) (natural protein, UniProt P02489 1-173, looked up)
chain: MDVTIQHPWFKRTLGPFYPSRLFDQFFGEGLFEYDLLPFLSSTISPYYRQSLFRTVLDSGISEVRSDRDKFVIFLDVKHFSPEDLTVKVQDDFVEIHGKHNERQDDHGYISREFHRRYRLPSNVDQSALSCSLSADGMLTFCGPKIQDGLDATHAERAIPVSREEKPTSAPSS
B2: recombinant human αA-crystallin T148A (nonphosphorylatable) (natural protein, UniProt P02489 1-173, looked up)
chain: MDVTIQHPWFKRTLGPFYPSRLFDQFFGEGLFEYDLLPFLSSTISPYYRQSLFRTVLDSGISEVRSDRDKFVIFLDVKHFSPEDLTVKVQDDFVEIHGKHNERQDDHGYISREFHRRYRLPSNVDQSALSCSLSADGMLTFCGPKIQAGLDATHAERAIPVSREEKPTSAPSS

Target: the molecule itself
Assay: native gel or EMSA; NativePAGE 3-12% Bis-Tris gel, 7.5 ug of recombinant protein per lane; oligomer profile from <480 to 1236 kDa, median size read against markers

Row | Protein | binding result
1 | B1 | binds
2 | B2 | binds
